What is called koff is the first-order rate constant of dissociation. The low end stands for a long-lived complex, the high end for a short-lived complex. Usually kon stands for the rate constant with which the complex forms. High values mean fast association, low ones slow association. For orientation: t½ means the time in which the quantity being followed falls by half. High values mean slow decline, low ones rapid decline. The Kd is the equilibrium constant for the complex coming apart.

Here are results for seven molecules from patent publication US20170247441A1 (Hoffmann-La Roche, published 2017).

Positions count from the first letter of the chain named. Names may count otherwise.

Experiment [1] concerns the target T1, ANG2 (R&D Systems, Cat#623-CF) (human, UniProt O15123 19-496).
T1 sequence: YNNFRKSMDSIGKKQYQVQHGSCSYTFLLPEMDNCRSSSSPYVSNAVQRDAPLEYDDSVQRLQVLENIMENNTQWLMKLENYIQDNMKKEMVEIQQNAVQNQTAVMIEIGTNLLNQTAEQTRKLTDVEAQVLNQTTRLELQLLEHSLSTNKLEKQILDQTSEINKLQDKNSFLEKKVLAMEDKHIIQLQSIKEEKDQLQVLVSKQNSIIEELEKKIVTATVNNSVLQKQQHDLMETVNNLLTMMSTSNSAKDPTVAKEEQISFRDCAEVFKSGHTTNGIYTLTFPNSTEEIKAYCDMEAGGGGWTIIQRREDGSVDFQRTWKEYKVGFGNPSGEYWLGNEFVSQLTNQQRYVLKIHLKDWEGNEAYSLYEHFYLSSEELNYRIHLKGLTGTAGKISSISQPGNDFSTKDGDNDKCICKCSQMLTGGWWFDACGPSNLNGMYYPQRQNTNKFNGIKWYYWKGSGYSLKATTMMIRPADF
Briefly: cell-based or functional assay.

In experiment [2] the target is T2, human ANG2-RBD-Fc-region fusion (human, UniProt O15123 275-496, limits assumed).
T2 construct: not shown: Fc-region
T2 sequence: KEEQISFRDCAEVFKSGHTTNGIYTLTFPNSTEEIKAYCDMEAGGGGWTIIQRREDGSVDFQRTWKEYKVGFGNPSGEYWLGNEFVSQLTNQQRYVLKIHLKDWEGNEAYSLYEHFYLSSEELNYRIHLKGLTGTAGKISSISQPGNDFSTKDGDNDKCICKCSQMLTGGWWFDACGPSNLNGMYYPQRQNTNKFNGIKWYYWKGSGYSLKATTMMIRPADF
Briefly: SPR, human ANG2-RBD-Fc captured, 1:1 model. (Surface plasmon resonance follows binding to a sensor surface in real time, without labels.)

Experiment [3] concerns the target T2, human ANG2-RBD-Fc-region fusion. Briefly: SPR, human ANG2-RBD-Fc captured, 1:1 model. This is another data set of the same source.
The target in experiment [4] is T3, cynomolgus ANG2-RBD-Fc-region fusion (cynomolgus).
T3 construct: domain: RBD
Kind of experiment: SPR, cynomolgus ANG2-RBD-Fc captured, 1:1 model.
Protocol: HBS-N (10 mM HEPES, 150 mM NaCl pH 7.4, GE Healthcare) was used as running buffer during the immobilization procedure. For the following kinetic characterization, sample and running buffer was HBS-P (10 mM HEPES, 150 mM NaCl pH 7.4, 0.05% Surfactant P20; GE Healthcare). The flow cell was set to 25° C.—and the sample block was set to 12° C.—and primed with running buffer twice prior to kinetic characterization.
Association was measured by injection of the Cross-Fabs in various concentrations in solution for 90 sec. at a flow rate of 90 μl/min starting with 300 nM in serial 1:3 dilutions. The dissociation phase was monitored for up to 600 sec. and triggered by switching from the sample solution to running buffer. All surfaces were regenerated by 60 sec. washing with a 3 M MgCl₂ solution at a flow rate of 5 μl/min. Bulk refractive index differences were corrected by subtracting the response obtained from an anti-human IgG antibody (Fc) surface. Blank injections were also subtracted (=double referencing). For calculation of KD and other kinetic parameters the Langmuir 1:1 model was used.

The target in experiment [5] is T2, human ANG2-RBD-Fc-region fusion. Kind of experiment: SPR, human ANG2; bivalent CrossMab, avidity.
Experiment [6] shares this target. Briefly: SPR, human ANG2; bivalent CrossMab, avidity. The source holds these as a separate data set.
For experiment [7] the target is unchanged. Briefly: SPR, human ANG2; ANG2/VEGF bispecific CrossMab.

B1: XAng2-0041 (Fab)
heavy: not shown
light: SYVLTQPPSVSVAPGQTARITCGGNNIGSKSVHWYQQKPGQAPVLVVYDDSDRPSGIPERFSGSNSGNTATLTISRVEAGDEADYYCQVWDSSSDHWVFGGGTKLTVLSSASTKGPSVFPLAPSSKSTSGGTAALGCLVKDYFPEPVTVSWNSGALTSGVHTFPAVLQSSGLYSLSSVVTVPSSSLGTQTYICNVNHKPSNTKVDKKVEPKSC
notes: CrossFab CL-CH1, valency 1; differences VH: S100dP, G100jA, T28N, T30A; VL: wt
On to B1, for which, in experiment [1], the “relative biological activity [%]” value came out at 838%. In addition, in experiment [2], the off-rate (koff) is 0.00317 s⁻¹, the kon was 3.85e+06 M⁻¹ s⁻¹ and the “t½” value is 3.65 min. Moreover, in experiment [3], the koff is 0.00317 s⁻¹, the kon is 3.85e+06 M⁻¹ s⁻¹ and the “t1/2” value was 3.65 min. Besides, in experiment [4], binding was put at a Kd of 2 nM, the off-rate (koff) amounted to 0.0036 s⁻¹, the on-rate (kon) came out at 2.14e+06 M⁻¹ s⁻¹ and the “t½” value amounted to 3.22 min.

B2: XAng2-0099 (antibody)
heavy: not shown
light: B1 light
notes: CrossMab CL-CH1, valency for ANG2 2; differences VH: S100dP, G100jA, T28N, T30A; VL: wt
For the molecule B2, in experiment [5], the koff stood at 0.00011 s⁻¹ and the kon stood at 2.61e+07 M⁻¹ s⁻¹. In experiment [6], the koff came out at 0.00011 s⁻¹, the kon is 2.61e+07 M⁻¹ s⁻¹ and the “t1/2 (S)” value is 105 min.

B3: XAng2-0075 (Fab)
heavy: not shown
light: B1 light with D50T
notes: CrossFab CL-CH1, valency 1; differences VH: S100dP, G100jA, T28N, T30A, D100bS; VL: D50T
With B3, the “relative biological activity [%]” value in experiment [1] was 128%. Further, in experiment [2], the koff was found to be 0.031 s⁻¹, the on-rate (kon) is 2.22e+06 M⁻¹ s⁻¹ and the “t½” value is 0.367 min. For the same molecule, in experiment [3], the dissociation rate constant (koff) amounted to 0.031 s⁻¹, the on-rate constant (kon) worked out at 2.22e+06 M⁻¹ s⁻¹ and the “t1/2” value came out at 0.367 min. Moreover, in experiment [4], the Kd was determined as 24 nM, the dissociation rate constant (koff) is 0.0325 s⁻¹, the kon came to 1.34e+06 M⁻¹ s⁻¹ and the “t½” value was 0.35 min.

B4: Xang2-0166 (bispecific antibody, human IgG1, kappa, L234A L235A)
heavy 1: not shown
light 1: B1 light with D50T
heavy 2: EVQLVESGGGLVQPGGSLRLSCAASGYDFTHYGMNWVRQAPGKGLEWVGWINTYTGEPTYAADFKRRFTFSLDTSKSTAYLQMNSLRAEDTAVYYCAKYPYYYGTSHWYFDVWGQGTLVTVSSASTKGPSVFPLAPSSKSTSGGTAALGCLVKDYFPEPVTVSWNSGALTSGVHTFPAVLQSSGLYSLSSVVTVPSSSLGTQTYICNVNHKPSNTKVDKKVEPKSCDKTHTCPPCPAPEAAGGPSVFLFPPKPKDTLMASRTPEVTCVVVDVSHEDPEVKFNWYVDGVEVHNAKTKPREEQYNSTYRVVSVLTVLAQDWLNGKEYKCKVSNKALGAPIEKTISKAKGQPREPQVYTLPPCRDELTKNQVSLWCLVKGFYPSDIAVEWESNGQPENNYKTTPPVLDSDGSFFLYSKLTVDKSRWQQGNVFSCSVMHEALHNAYTQKSLSLSPGK
light 2: not shown
notes: ANG2/VEGF bispecific CrossMab CL-CH1, valency for ANG2 1; ANG2 VH: S100dP, G100jA, T30A, T28N, D100bS; VL: D50T; VEGF: wt2
As for B4, in experiment [7], the dissociation constant (Kd) came out at 49 nM, the koff amounted to 0.0135 s⁻¹, the on-rate constant (kon) worked out at 275000 M⁻¹ s⁻¹ and the “t1/2” value is 0.85 min.

B5: XAng2-0101 (antibody)
heavy: not shown
light: B1 light with D50T
notes: CrossMab CL-CH1, valency for ANG2 2; differences VH: S100dP, G100jA, T28N, T30A, D100bE; VL: D50T
B5: in experiment [5], the off-rate (koff) came to 0.00012 s⁻¹ and the kon is 1.83e+07 M⁻¹ s⁻¹. In experiment [6], the koff worked out at 0.00012 s⁻¹, the kon was found to be 1.83e+07 M⁻¹ s⁻¹ and the “t1/2 (S)” value is 96.2 min.

B6: XAng2-0100 (antibody)
heavy: not shown
light: B1 light with D50T
notes: CrossMab CL-CH1, valency for ANG2 2; differences VH: S100dP, G100jA, T28N, T30A; VL: D50T
Regarding B6, in experiment [5], the koff is 0.000167 s⁻¹ and the kon worked out at 2.06e+07 M⁻¹ s⁻¹. Besides, in experiment [6], the koff came out at 0.000167 s⁻¹, the kon came out at 2.06e+07 M⁻¹ s⁻¹ and the “t1/2 (S)” value is 69.3 min.

B7: XAng2-0090 (Fab)
heavy: not shown
light: B1 light with D50T
notes: CrossFab CL-CH1, valency 1; differences VH: S100dP, G100jA, T28N, T30A; VL: D50T
Turning to B7, the “relative biological activity [%]” value in experiment [1] amounted to 706%. Further, in experiment [2], the koff is 0.00253 s⁻¹, the on-rate constant (kon) amounted to 2.16e+06 M⁻¹ s⁻¹ and the “t½” value came to 4.57 min. For the same molecule, in experiment [3], the dissociation rate constant (koff) came out at 0.00253 s⁻¹, the kon was found to be 2.16e+06 M⁻¹ s⁻¹ and the “t1/2” value was found to be 4.57 min. Also, in experiment [4], binding was characterised by a dissociation constant (Kd) of 2 nM, the koff was 0.00308 s⁻¹, the kon turned out to be 2.02e+06 M⁻¹ s⁻¹ and the “t½” value worked out at 3.75 min.
